Measured values reported in the supplement of paper PMC9876800.

Test system: peptide library, one residue held at a place counted from the S/T acceptor
Experiment: relative phosphorylation of the sub-library (ratio to the mean residue at this position); higher = residue favoured
How it was run: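 Relative sub-library phosphorylation is the ratio of each sub-library's signal to the mean residue at that position. The signal came from phosphorimaging of spots on streptavidin membranes, quantified by densitometry, after purified recombinant kinases reacted with biotinylated degenerate peptide sub-libraries in 384-well plates. Reactions held 50 μM peptide and 50 μM ATP spiked with γ-32P-ATP for 90 min under kinase-specific conditions.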

Chain of RPS6KB1, construct: aa1-421, human (P23443 1-421, looked up): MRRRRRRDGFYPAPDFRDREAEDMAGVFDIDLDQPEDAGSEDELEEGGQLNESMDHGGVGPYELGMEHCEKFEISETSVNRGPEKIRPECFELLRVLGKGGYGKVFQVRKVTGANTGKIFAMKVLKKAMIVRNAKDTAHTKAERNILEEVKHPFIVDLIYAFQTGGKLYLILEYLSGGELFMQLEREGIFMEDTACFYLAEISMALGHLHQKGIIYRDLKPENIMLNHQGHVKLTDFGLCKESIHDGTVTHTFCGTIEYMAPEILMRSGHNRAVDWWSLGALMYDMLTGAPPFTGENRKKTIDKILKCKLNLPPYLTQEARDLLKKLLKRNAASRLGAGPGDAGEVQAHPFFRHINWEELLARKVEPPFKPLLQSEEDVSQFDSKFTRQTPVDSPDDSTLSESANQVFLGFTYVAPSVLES
Chain of WNK1, construct: aa171-529, human (Q9H4A3 171-529, looked up): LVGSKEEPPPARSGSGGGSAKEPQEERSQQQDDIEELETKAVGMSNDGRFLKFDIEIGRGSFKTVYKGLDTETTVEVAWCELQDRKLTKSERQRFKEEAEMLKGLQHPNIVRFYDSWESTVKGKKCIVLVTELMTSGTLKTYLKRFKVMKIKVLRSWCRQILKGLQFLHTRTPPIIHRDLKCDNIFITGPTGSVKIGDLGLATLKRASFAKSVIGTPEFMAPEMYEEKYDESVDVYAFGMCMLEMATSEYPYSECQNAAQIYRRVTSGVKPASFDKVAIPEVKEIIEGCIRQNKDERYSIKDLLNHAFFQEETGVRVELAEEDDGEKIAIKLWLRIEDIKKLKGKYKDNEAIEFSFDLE
Chain of STK38L, construct: Full length, human (Q9Y2H1 whole entry, looked up): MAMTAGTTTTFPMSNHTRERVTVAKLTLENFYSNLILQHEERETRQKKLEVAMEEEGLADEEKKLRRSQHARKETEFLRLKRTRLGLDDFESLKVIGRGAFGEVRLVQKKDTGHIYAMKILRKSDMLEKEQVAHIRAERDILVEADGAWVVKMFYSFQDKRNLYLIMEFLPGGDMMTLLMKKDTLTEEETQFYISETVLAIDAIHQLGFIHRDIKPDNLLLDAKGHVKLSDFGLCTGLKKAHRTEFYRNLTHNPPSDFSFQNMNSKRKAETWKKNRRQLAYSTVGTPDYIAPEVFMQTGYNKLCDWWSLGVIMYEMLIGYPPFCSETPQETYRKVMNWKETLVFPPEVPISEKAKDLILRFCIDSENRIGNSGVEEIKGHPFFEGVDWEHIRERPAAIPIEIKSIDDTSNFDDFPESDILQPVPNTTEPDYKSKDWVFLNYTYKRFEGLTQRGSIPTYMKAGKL

RPS6KB1, construct: aa1-421, human (from UniProt P23443)
relative phosphorylation
Details	at +1	at +2	at +3	at +4	at -1	at -2	at -3	at -4	at -5
A fixed	0.718	0.952	0.865	0.956	0.716	0.67	0.516	0.839	0.539
D fixed	0.458	0.433	0.664	0.933	0.802	0.231	0.188	0.433	0.362
E fixed	0.849	0.268	0.694	0.703	0.577	0.25	0.194	0.694	0.323
F fixed	2.01	0.855	1.22	0.909	0.878	0.823	0.421	0.73	0.721
G fixed	0.804	1.68	1.13	1.18	0.562	0.48	0.318	0.724	0.608
H fixed	1.19	1.65	1.45	1.38	1.28	1.14	0.949	1.11	1.21
I fixed	1.07	0.942	0.914	0.909	0.768	0.741	0.37	0.708	0.593
K fixed	0.932	0.794	0.982	0.943	1.35	2.56	1.45	2.08	1.92
L fixed	1.18	0.933	0.976	0.868	1.12	1.24	0.426	0.802	0.714
M fixed	1.39	1	0.794	0.863	1.19	0.87	0.452	0.947	0.529
N fixed	0.746	1.41	0.87	1.07	1.31	0.763	0.41	0.904	0.66
P fixed	0.328	0.816	0.955	1.26	1.2	0.289	0.297	0.794	0.645
Q fixed	0.717	0.707	1	0.966	0.957	0.841	0.541	1.05	0.934
R fixed	0.944	1.61	1.08	0.784	1.3	3.7	8.82	2.34	5.28
V fixed	1.19	1.06	0.772	0.926	1.01	0.596	0.362	1.01	0.562
W fixed	1.42	0.935	1.43	1.26	0.8	0.751	0.658	0.989	0.738
Y fixed	1.05	0.955	1.21	1.09	1.17	1.05	0.624	0.849	0.661
pThr fixed	0.905	0.467	0.716	1.36	0.384	0.275	0.231	0.55	0.429
pTyr fixed	1.39	0.696	0.954	1.14	1.77	0.451	0.348	0.598	0.579

STK38L, construct: Full length, human (from UniProt Q9Y2H1)
relative phosphorylation
Details	at +1	at +2	at +3	at +4	at -1	at -2	at -3	at -4	at -5
A fixed	0.661	1.19	0.645	0.811	0.671	0.847	0.656	1.03	0.951
D fixed	1.16	2.27	1.07	1.33	0.872	0.675	0.648	0.889	0.79
E fixed	1.1	0.721	0.987	1.21	0.636	0.712	0.554	0.812	0.582
F fixed	0.851	0.661	1.04	1.1	0.477	0.747	0.435	0.654	0.538
G fixed	1.38	2.25	1.6	1.15	1.68	1.2	0.833	1.39	0.971
H fixed	0.83	2.05	1.22	1.11	0.979	1.6	1.18	1.26	4.33
I fixed	0.832	0.568	0.826	0.711	0.238	0.265	0.23	0.403	0.345
K fixed	0.847	0.396	0.865	0.812	1.9	2.07	2.1	1.55	1.65
L fixed	0.804	0.421	0.788	0.856	0.619	0.315	0.243	0.481	0.433
M fixed	1.48	0.406	0.843	1.01	0.768	0.487	0.399	0.849	0.508
N fixed	1.61	1.09	1.22	1.24	1.43	1.53	1.03	0.989	0.792
P fixed	0.532	0.81	1.27	1.24	2.64	1.45	1.94	1.89	0.701
Q fixed	1.36	1.1	0.932	1.15	1.37	1.18	0.827	0.982	0.629
R fixed	0.577	0.391	0.59	0.588	1	1.9	4.36	1.63	1.7
V fixed	0.919	0.854	0.668	0.686	0.372	0.358	0.324	0.423	0.457
W fixed	1.09	0.958	1.39	0.955	0.545	1.01	0.598	0.942	0.884
Y fixed	0.961	0.856	1.04	1.05	0.799	0.64	0.657	0.829	0.741
pThr fixed	1.29	0.941	0.91	1.61	0.457	0.842	0.692	0.698	0.46
pTyr fixed	1.26	1.04	0.87	1.05	0.76	0.814	0.914	0.895	0.672

WNK1, construct: aa171-529, human (from UniProt Q9H4A3)
relative phosphorylation
Details	at +1	at +2	at +3	at +4	at -1	at -2	at -3	at -4	at -5
A fixed	0.732	1.03	0.811	0.927	1.25	1.57	0.952	1.02	0.944
D fixed	0.238	1.07	0.679	0.746	0.328	0.241	0.314	0.487	0.493
E fixed	0.257	0.75	0.619	0.759	0.445	0.263	0.371	0.536	0.53
F fixed	1.18	0.759	1.52	1.24	0.802	0.764	0.799	0.86	1.12
G fixed	0.84	0.934	0.828	0.839	1.1	2.18	0.926	0.88	0.867
H fixed	0.762	0.794	1.17	0.888	0.887	1.31	0.979	1	0.932
I fixed	1.17	1.24	0.89	1.13	0.75	0.748	0.85	0.951	0.955
K fixed	1.22	1.19	1.43	1.5	2.19	1.44	2.48	2.01	1.82
L fixed	1.34	0.984	0.958	1.02	0.891	0.641	0.951	1.02	1.22
M fixed	1.82	0.899	0.954	0.952	1.07	0.597	0.855	0.952	0.974
N fixed	0.895	0.665	0.783	0.719	0.719	0.714	0.606	0.872	0.712
P fixed	0.288	0.457	0.582	0.936	0.586	1.25	1.01	0.763	0.819
Q fixed	1.18	0.65	0.734	0.861	1.21	0.954	0.845	0.795	0.698
R fixed	2.01	2.97	1.69	1.37	2.5	2.25	2.63	1.83	1.54
V fixed	0.986	1.21	0.809	0.992	0.971	0.957	0.961	1.06	1.12
W fixed	0.888	0.635	1.23	1.08	0.574	0.462	0.621	0.856	1.11
Y fixed	1.18	0.759	1.31	1.03	0.735	0.669	0.858	1.1	1.15
pThr fixed	0.58	0.863	0.707	0.803	0.61	0.852	0.854	0.882	0.702
pTyr fixed	0.662	0.911	0.849	0.78	0.789	0.573	0.806	0.666	0.637
